The supplement of paper PMC12636428

Test system: Saccharomyces cerevisiae
Assay: transcriptional activation domain activity (GFP:mCherry ratio, weighted mean of sorted bins, harmonized to initial dataset scale) (arbitrary fluorescence ratio units); higher = stronger transcriptional activation
Conditions: beta-estradiol 1 µM; induction time 4 h
Procedure: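 53-aa protein tiles (fungal proteins plus yeast TF control tiles) fused C-terminally to a DBD-estrogen-binding domain-mCherry synthetic TF, integrated in S. cerevisiae (URA3 locus) with a GFP reporter. Cells were induced with 1 uM beta-estradiol for 4 h at 30 C, FACS-sorted into 8 bins by GFP:mCherry ratio and barcodes sequenced. Activity is the read-weighted mean bin fluorescence (GFP:mCherry), averaged over barcodes (median 12); tiles under 50 reads were discarded. New active-learning values were harmonized by linear fit onto the scale of the initial (Hummel et al.) dataset. The assay saturates at low and high signal.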

Row | Sequence | transcriptional activation domain activity
1 | IENFLSPSFLEFIPHLANEYGFDYELVTYKWPTWLIHQKEKQRLIWGYKILFL | 56800
2 | KNDCCFCYALGLFIRMDCFLRIFVCLCFDVGLYAIEFDLCSLLLACIHVHFSH | 36300
3 | SFTRRLILWNVCALGIIIVLASRRLLRCILLRKKKFDDTMEFSMLSLIFDLCV | 71800
4 | KWLGECLNAAIAVFLYIYFLLHVGLLHLSHFFFFFFDLFSPVYTLSLQMVLYL | 53800
5 | LYSVCSILLLVVRLFKQLPRQYCSWRVVYTQKLWISITICFTLMRFSFSRDHT | 51100
6 | MIRTLFLFFLFIIIFFFFFFFCFLLFFVFLFLFIFLIVVFTIRKSMNLGFVCV | 42400
7 | CYFLLLLHLPCYRFLFLFLLWLLGQVSHFFLLSHHLIILFWGFVILYSYYIST | 63000
8 | MSLAHGHLFNRLQAVGPWDSLCCMGCDLSTLYLAALHSPWRVSWWRFLILGLL | 58200
9 | EEEDRHRHSRHRSKRSRSRTYSEERHRSRTRDSARRSKTRTKSPDERPPASED | 40900
10 | VHEQLEVALRRWRISSIMEGTRVRDVLIRLPLAHSFASLSSKVNILLHEMLFE | 45700
11 | QLKVVRITFSGLGAVALTICPCTPVVEQLLQAVHLKVLYLVKELFVCIPPNTS | 48500
12 | MVFIIFFAAFYTLFLYHSSLFFTLPFASIFFLLFFVRFIFFISVFLLFFLLGL | 51100
13 | ASVVQWLGFHPSKVEVRVRFTAVANKRSSRTSLLLLVVWSWRRQRWMLRWSSG | 49300
14 | SVYLHALKKVITTWKGEVLPIILARKIQWTEWEIKDLEYEITHFYVKTFFMTI | 47900
15 | CGRCRCCRGLLPLYPHHPFSFFVLLCIPGMFLLLLVHWMFLSFVSGFAILVPE | 79500
16 | DEDAEGEDDPESAEPAKKRGRPPGSGKKRKPAAEKPKPQPGRGRGRPKKSEAA | 18000
17 | MRRVARSTKGGKVRSLAALVVVGNGNGVGGFGEGRAVDSAQAVAKATAAATKN | 32500
18 | DSGGDRSTSPDSDRDKENKKASDKTEDSDKETQENGEEEKGGEKERESKKGEK | 16700
19 | VFTDSLFQIVLVGRLTGFFYSFSFLFFFLSFFFFFSFIPFFPPFLYGLFFFLF | 67600
20 | RGAKEGARGGGENEKNEGDTGRSRAEGTRETESGAGASQQRAAREGTAGTQGR | < 6570
21 | MYFIILAFVWCFCSCFCFRCVAFWWPLSLSLCLSVGIYLLAFFFFFTTLVLVY | 26200
22 | RLSSSSKSKRSLRHPQRALCSSRAWEEDGGGNPNGGRGFVVRIRRFGRARLHS | 62500
23 | EDEEDLSSKPRCQRCRKSKKGCDRQRPCQRCKDAGLSADQCVSEDEGNGRKGR | 15700
24 | EWAPDVLRKSAKTFTQEGPMVKLQIVTLAAKLLVLSPVDPRLTLLCRYVFSLA | 46000
25 | MISWLLCFFDFRGDFLYGVLFFCTIFCFAVFGFFFFLQPSTFSFTIFFLCFFS | 31000
26 | KKGREDMGNERKGNDMEGREGEKRGRKGKREGGGKGGKGGEKQREGRTGERGR | 21800
27 | GAKEEGGKKEAGGEKKEGSGKEGAKEGGEKGAKEGGEKKEGGEKGEGKEGGEG | 20300

Row | Sequence | transcriptional activation domain activity
28 | MVGLVGFWVLFLFFLCPFLFSCPSPSPPLRPSLYIFQISYGSFFSCFSFLFFS | 68700
29 | RGREDNEDGGRNKRRGGGRFEGRRGRGDRDGNRRRDTRDSRREDKSTANGDAS | < 6570
30 | HLFFLKNHHCFLSFIFFLFLFTLFFYFIFFLKLQFRKNNNYLFFLYKKFLTFF | 36800
31 | LAMQGFFRTFGLLCINFDSAFRLATFFLPNMIQYTGYLIPTFQMKRWLFWISY | 43200
32 | LQAMLLLAHMILAIPFFSLFCRLLLLHPTNPDSPVLWMSLHVFFTYLWSLALV | 66000
33 | GSEDESEGSEDESSEDEEDEEKALDKKMEIQDQTNTNLVNLRKTIYLTIMSSI | 43400
34 | KARPRQEGGQRQESGKKRKRDEDEGGDGQEGGEGGRKRRRKRKGAGGADDGVQ | 33400
35 | MLHPTIVYPFITHLLLLILLFSLLPRFSYDADMDFLLVFSSFVLLLCFPWFED | 40400
36 | MMFETHFWSLSSLLLLFFLSFFFFLYIWGSRFFFFQFPFPFPFPFPFFFSIFF | 53800
37 | SWNAPSLTNSWDSPPGNRTGAVTIGDESINGSEMPDFSLDLVSNDRQTGLEAL | 32800
38 | HRAGTSGQSLQQDDVLHVTRATLVELGNTSISTVIASLLVLLEDLARPYAAVA | 36000
39 | HSDLLNDMDSASQRASHNASGFPNFLDTSCSSSFDDHFIFTNNLPFLNNNSIN | 60800
40 | EDKAAEDGAAKKPKTTELPGGVKIQDMKVGSGPQAKPGKKIGMRYIGKLQGSN | 30600
41 | IILDLLLRFSKVENVISQAVDSPPMGRLGCCAIVTGSAVAWALCTATRFRLVL | 52600
42 | VAECLKAMVKWPITMSPTCFHKRLIPCIFFWSQNLLGILLLLHLTEQVPILVR | 72600
43 | MRFLLTIIHFFLTLFLSYTLFLSVILLFSRLYYFLSIIRSSYAIIWIFFLFIL | 52000
44 | SSKISCIHHVALKPSSGRYKRVTIIFNIIKAKRHLVTNSLRLMGLLLAIALYI | 53000
45 | IETLYRLVTTHSGQDYFIQSVHHGILLLNLLYMDIPYFTEWVGLSCQLYNVIT | 27700
46 | ANHQIYLDWWYTWCLAYFMDTHRDVCIVLKKSLKWVPIFGWAMHQFFNFIFLA | 41800
47 | KIHLVNIAQVVVFFIYRLLYGLIPLFEIATCAYYPLLVSLWHLDYLLFYTVMF | 62800
48 | EKPAEAAPAEAIPAEPEAVEEEKPKSPAPTPAAAPAKGTTPSPEKENVAPAKA | 24800
49 | YVVQYKNSLIGKHFKMLQQLGVFHLHDLCTPLLFDLWKATGELGALLWYPEIK | 33300
50 | DPTSRAPTAVRVRVKHSSGEEQEEEERLPADGVVICAGPWTGRVARRLLGEKV | 37200
51 | HHLRLHWFADVLNYRARDTLFSILRIVSHIRSLRLFAVYLLRWERQRHEAKTV | 49800
52 | MLLYTFILIVHIHRDLGSIDFVWKARNETASLRQRYLAVNYQLLFGVIKYLWA | 33400
53 | EPAETPAETPAPVEPVVEEKKEETPAPVKETPAPTPNPAAAPAPQQQQPAAAK | 26400
54 | DSPVDRAMNTPLQQQEGLKAELPHDFLFQHGTDDTMYNLTDDLSSSLSSSINS | 68200

Row | Sequence | transcriptional activation domain activity
55 | RKIVNEPREYLHAGNVKDNQGARQKKRRVGRGLGSGLGKTSGRGQKGWKARAP | 37000
56 | LNWYWLTTTMYFLYGESMLFYFKHIVLVGSVLTPLATHHRFISFTLYIFGFIF | 42000
57 | CLTQGLGICRDAENPEVNPDTATGEEGDVRTRCFQRDSLKDQVIVLAFLIITT | 28900
58 | FWVWMMTSPAFPLKLFIPLFHLTILLIPFTSQFFTPALPITSWLICFFSSKFI | 49200
59 | RCKHSDCQELSPFASVFDLIDHYDHTHAFIPETLVKYSYIHLYKPSVWDLFEY | 157000
60 | MTDRCRVRCTKLIIIIKGIFFWVSLVSLLFFFLLILSAFSFFLLLLLYYLFTI | 46200
61 | AALLHLIILISFGNLLLVPKCCLLVHTLRFWCRVFFLNPSLVLSFALSTFIYS | 58900
62 | PNYEQHPAPAPAPAPGNKPEEHHEEKPEEHHEEKPSYEQHPAPAPAYQANAPH | 19400
63 | QWCIYAMLAYVIGWTISFFFSHLFTCYPITVFIEPYYGNKCVKTVPMFIALLY | 67700
64 | EAWILHMVVILGVNYLFTFYVWDFSYTDTELWNVTCYWKLGWLLPIPYTLICF | 51000
65 | MYLEVRCQLLGCMAIWWDNWFRLDLLSLVSAYRILLLCMGEFLIWKFWFIRLF | 60000
66 | VSTMLCYLNYCRTDVTVPTNSNPIFKLDNSLFLRLILLCNINLLLLLPFGLYL | 47100
67 | ELPKKCDDKYWEHGDNYQEAIRQLPTKPSLVEFFNCLITLNRILALTLRMLYS | 55200
68 | ILCASLHLLGHLPFRFCDVVLLFICHMFQELGRFDLIPGPVAHLTLRHSIVAA | 63500
69 | FGLLIAGWVCFFFFLSPLFPLFPLFPLFFFFFLLVGSPVSVYLWLGFLVWFGL | 32800
70 | MVIFRLGSAPFFFLLFLFVLFFRFFFLVCCCLYGWVSVFLLLFFLRFFVSKWG | 50700
71 | RLVVLYGASRIVVAIKRAHGGFDYTRRLSDEEPMVRIMTVVVSYSRLILISVY | 53300
72 | ALGLLFVCEQIELYPQTARIFGLRLIYVILLLHLFLPFTDSLPWLKTLFSILT | 54600
73 | PEKCGDLVVIRGGRLHFRSSAVRLHLLQQMGKTLLLLKDAHLQLTLRTLLYAR | 46500
74 | PGYVVQYKNSLIGKHFKMLQQLGVFYLHDLCAPLILDLWKATGELGAYLWFPE | 40900
75 | MSEPPRKRAKLACVTCNARRVKCDVTERRPCGNCIAGNVECETRESKRGKHPR | 32700
76 | RSSSKKKDASDDEDKHSRRKSSSRKKGSDEEDDKSRHSRSASASKKKDKKSYD | 14300
77 | MCVLFGNFFFFLLFSFCFYLFFFLSSFLAPLPAFFLLFCLLMGRKIGVGIIPL | 40800
78 | EEQEQDAASKAQEGSKDAPAPKSTENKNEKDAAPNDSSPSKFTKKHKAKKPSK | 24700
79 | ASDSAPEPVKKKRGRPPKAQSDSEVVEKRPKKKPGPKPKPKAKAARKRKAPVS | 18900
